Assay [1] deals with T1, prostate specific membrane antigen (PSMA), human (human, UniProt Q04609 1-750).
T1 construct: whole, on cells; The target was native PSMA on LNCaP cells, in LNCaP membrane preparations (ELISA) or in frozen tissue sections (immunohistochemistry); also called human PSMA
As to the kind of experiment: stated, method not described.

Assay [2] addresses T1, prostate specific membrane antigen …. In words: ELISA on LNCaP membrane preparation. A general note: ELISA stands for enzyme-linked immunosorbent assay.
Assay [3] has the same target. In words: ELISA on LNCaP membrane preparation, purified antibody.

T1 sequence (Q04609 whole entry): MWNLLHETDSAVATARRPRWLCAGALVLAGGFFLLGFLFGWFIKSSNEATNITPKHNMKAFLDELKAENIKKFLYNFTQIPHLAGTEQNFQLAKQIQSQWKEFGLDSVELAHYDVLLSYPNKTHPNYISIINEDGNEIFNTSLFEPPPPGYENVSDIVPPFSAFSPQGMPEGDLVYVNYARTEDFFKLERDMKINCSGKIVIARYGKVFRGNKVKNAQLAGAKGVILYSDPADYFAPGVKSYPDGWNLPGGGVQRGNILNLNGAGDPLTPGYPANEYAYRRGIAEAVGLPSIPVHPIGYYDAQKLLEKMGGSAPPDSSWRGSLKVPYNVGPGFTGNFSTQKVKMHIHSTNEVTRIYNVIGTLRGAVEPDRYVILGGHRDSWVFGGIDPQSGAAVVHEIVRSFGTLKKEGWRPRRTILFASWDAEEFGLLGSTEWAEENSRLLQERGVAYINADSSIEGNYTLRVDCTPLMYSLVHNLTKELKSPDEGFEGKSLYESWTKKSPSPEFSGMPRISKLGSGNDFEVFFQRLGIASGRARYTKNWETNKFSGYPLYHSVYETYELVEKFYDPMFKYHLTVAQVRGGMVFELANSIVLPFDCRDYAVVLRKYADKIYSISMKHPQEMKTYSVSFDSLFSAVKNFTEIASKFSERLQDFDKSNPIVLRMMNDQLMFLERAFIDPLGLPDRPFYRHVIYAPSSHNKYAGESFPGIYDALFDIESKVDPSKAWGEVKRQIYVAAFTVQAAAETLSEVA

B1: murine monoclonal antibody E99 (hybridoma ATCC HB-12101) (antibody, mouse IgG3, V domains shown)
VH: QVQLKESGPGLVASSQSLSITCTVSGFSLTAYGINWVRQPPGKGLEWLGVIWPDGNTDYNSTLKSRLNIFKDNSKNQVFLKMSSFQTDDTARYFCARDSYGNFKRGWFDFWGQGTTLTVSS
VL: NIVMTQSQKFMSTSPGDRVRVTCKASQNVGSDVAWYQAKPGQSPRILIYSTSYRYSGVPDRFTAYGSGTDFTLTITNVQSEDLTEYFCQQYNSYPLTFGAGTKLELK
notes: also called murine E99
For B1, the binding result in assay [1] is “binds”.

B2: deimmunized J415 antibody composed of heavy chain version 4 (J415DIVH4) and light chain version 5 (J415DIVK5) (antibody, V domains shown)
VH: EVKLEESGGGLVQPGGSMKISCVASGFTFSNYWMNWVRQSPEKGLEWVAEIRSQSNNFATHYAESVKGRVIISRDDSKSSVYLQMNSLRAEDTAVYYCTRRWNNFWGQGTTVTVSS
VL: NIVMTQFPKSMSASAGERMTLTCKASENVGTYVSWYQQKPTQSPKMLIYGASNRFTGVPDRFSGSGSGTDFILTISSVQAEDLVDYYCGQSYTFPYTFGGGTKLEMK
notes: also called DIVH4/DIVK5; deJ415
With B2, the binding result in assay [2] was “binds”.

B3: murine monoclonal antibody J415 (hybridoma ATCC HB-12109) (antibody, mouse IgG1, V domains shown)
VH: EVKLEESGGGLVQPGGSMKLSCVASGFTFSNYWMNWVRQSPEKGLEWVAEIRSQSNNFATHYAESVKGRVIISRDDSKSSVYLQMNNLRAEDTGIYYCTRRWNNFWGQGTTLTVSS
VL: NIVMTQFPKSMSISVGERVTLTCKASENVGTYVSWYQQKPEQSPKMLIYGASNRFTGVPDRFTGSGSATDFILTISSVQTEDLVDYYCGQSYTFPYTFGGGTKLEMK
notes: also called murine J415
For the molecule B3, the binding result in assay [1] is reported as “binds”.

B4: deimmunized J415 antibody composed of heavy chain version 2 (J415DIVH2) and light chain version 5 (J415DIVK5) (antibody, V domains shown)
VH: EVKLEESGGGLVQPGGSMKISCVASGFTFSNYWMNWVRQTPEKGLEWVALIRSQSNNFATHYAESVKGRVIISRDDSKSSVYLQMNSLRAEDTAVYYCTRRWNNFWGQGTTVTVSS
VL: NIVMTQFPKSMSASAGERMTLTCKASENVGTYVSWYQQKPTQSPKMLIYGASNRFTGVPDRFSGSGSGTDFILTISSVQAEDLVDYYCGQSYTFPYTFGGGTKLEMK
notes: also called DIVK5 combined with heavy chain version 2; J415DIVH2 + J415DIVK5
With B4, in assay [3], the “fold less binding than the chimeric J415 antibody” value worked out at 2 fold.

B5: deimmunized J415 antibody composed of heavy chain version 1 (J415DIVH1) and light chain version 5 (J415DIVK5) (antibody, V domains shown)
VH: EVKLEESGGGLVQPGGSMKISCKASGFTFSNYWMNWVRQTPEKGLEWVALIRSQSNNFATHYAESVKGRVIISRDDSKSSVYLQMNSLRAEDTAVYYCTRRWNNFWGQGTTVTVSS
VL: NIVMTQFPKSMSASAGERMTLTCKASENVGTYVSWYQQKPTQSPKMLIYGASNRFTGVPDRFSGSGSGTDFILTISSVQAEDLVDYYCGQSYTFPYTFGGGTKLEMK
notes: also called DIVK5 combined with heavy chain version 1; J415DIVH1 + J415DIVK5
With B5, the “fold less binding than the chimeric J415 antibody” value in assay [3] was found to be 2 fold.

B6: J415 chimeric antibody (murine variable heavy and light chain regions fused to human constant heavy and light chain regions) (antibody, V domains shown)
VH: EVKLEESGGGLVQPGGSMKLSCVASGFTFSNYWMNWVRQSPEKGLEWVAEIRSQSNNFATHYAESVKGRVIISRDDSKSSVYLQMNNLRAEDTGIYYCTRRWNNFWGQGTTLTVSS
VL: NIVMTQFPKSMSISVGERVTLTCKASENVGTYVSWYQQKPEQSPKMLIYGASNRFTGVPDRFTGSGSATDFILTISSVQTEDLVDYYCGQSYTFPYTFGGGTKLEMK
notes: also called the chimeric
For B6, the binding result in assay [2] is “binds”.

B7: murine monoclonal antibody J533 (hybridoma ATCC HB-12127) (antibody, mouse IgG1, V domains shown)
VH: EVQLQQSGPELVKPGASVKMSCKASGYTFTGYVMHWVKQKPGQVLEWIGYINPYNDVTRYNGKFKGKATLTSDKYSSTAYMELSGLTSEDSAVYYCARGENWYYFDSWGRGATLTVSS
VL: DIVLTQSPASLAVSLGQRATISCRASESIDSYDNTFMHWYQQKPGQPPNLLIFRASILESGIPARFSGSGSGTDFTLTIYPVEADDVATYYCHQSIEDPYTFGGGTKLEIK
notes: also called murine J533
As to B7, the binding result in assay [1] is listed as “binds”.

For the origin of these results see patent US20030161832A1 (CORNELL RESEARCH FOUNDATION, published 2003).
